Experiment in all cases: ITC
For orientation: ITC needs no label: the signal is the heat of the interaction.

Test [1] addresses T1, Erbin PDZ binder.
T1 chain: TGWETWV

Test [2] has as its target T2, HTLV1 Tax (Human T-cell leukemia virus 1).
T2 chain: FRETEV

Test [3] addresses T3, ERBB4 (Homo sapiens).
T3 chain: HRNTVV

The target in test [4] is HTLV3 Tax (Human T-cell leukemia virus 3).
Test [5] deals with AdV E4 ORF1 (Human adenovirus).

B1: PSD95-PDZ2 155-249 (protein)
chain: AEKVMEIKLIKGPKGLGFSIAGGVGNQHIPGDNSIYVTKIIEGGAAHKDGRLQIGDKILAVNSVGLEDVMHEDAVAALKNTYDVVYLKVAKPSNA
By Kd is commonly meant the constant that tells how readily two partners part at equilibrium. Take B1: the Kd in test [1] was 5700 nM; in test [2] it was 1.5 µM; in test [3], 13.9 µM; in test [4], 20 µM; in test [5] it was 11.5 µM.

B2: PSD95-PDZ3 302-415 (protein)
chain: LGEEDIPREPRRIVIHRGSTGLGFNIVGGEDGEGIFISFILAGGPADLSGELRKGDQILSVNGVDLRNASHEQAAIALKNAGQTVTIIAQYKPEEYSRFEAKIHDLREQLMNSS
For the molecule B2, the Kd in test [2] turned out to be 3.8 µM; in test [3], 41.6 µM; in test [4], 43 µM.

B3: Erbin-PDZ PDZ (protein)
chain: AKQEIRVRVEKDPELGFSISGGVGGRGNPFRPDDDGIFVTRVQPEGPASKLLQPGDKIIQANGYSFINIEHGQAVSLLKTFQNTVELIIVREVSS
With B3, the Kd in test [1] was 240 nM; in test [2], 7.8 µM; in test [4], 23 µM.

(Values after publication PMC8393326 (2021).)
